Substitutions are numbered along the chain they refer to. Names and notes keep the numbering of the source. Values joined by “and” are separate entries in the source; they are usually repeats but may differ in a detail not shown here. Identical values can stand only once.
B1: KB001 mouse Fab FASEBA VH S28Y (Fab, V domains shown)
VH: EVQLKQSGPGLVAPSQSLSITCTVSGFYLSIYSVHWVRQPPGKGLEWLGMIWGGGSSDYNSALKSRLSISKDNSKSQVFLKMNSLQTDDTAMYYCARNGNFYAMDYWGQGTSVTVSS
VL: QIVLTQSPAIMSASLGERVTMTCTASSSVSSSFLHWYQQKPGSSPQLWIYSTSNLASGVPARFSGSGSGTSYSLTISSMEAEDAATYYCHQYHHSPYIYTFGGGTKLEIK
B2: KB001 mouse Fab FASEBA VH I51V (Fab, V domains shown)
VH: B1 VH with Y28S, I51V
VL: B1 VL
B3: KB001 mouse Fab FASEBA VH L29V (Fab, V domains shown)
VH: B1 VH with Y28S, L29V
VL: B1 VL
B4: KB001 mouse Fab FASEBA VH S56T (Fab, V domains shown)
VH: B1 VH with Y28S, S56T
VL: B1 VL
B5: KB001 mouse Fab FASEBA VH S30W (Fab, V domains shown)
VH: B1 VH with Y28S, S30W
VL: B1 VL
B6: KB001 mouse Fab FASEBA VH I31P (Fab, V domains shown)
VH: B1 VH with Y28S, I31P
VL: B1 VL
B7: KB001 mouse Fab FASEBA VH S30M (Fab, V domains shown)
VH: B1 VH with Y28S, S30M
VL: B1 VL
B8: KB001 mouse Fab FASEBA VH S56E (Fab, V domains shown)
VH: B1 VH with Y28S, S56E
VL: B1 VL
B9: KB001 mouse Fab FASEBA VH S56N (Fab, V domains shown)
VH: B1 VH with Y28S, S56N
VL: B1 VL
B10: KB001 mouse Fab FASEBA VH S30L (Fab, V domains shown)
VH: B1 VH with Y28S, S30L
VL: B1 VL
B11: KB001 mouse Fab FASEBA VH I31W (Fab, V domains shown)
VH: B1 VH with Y28S, I31W
VL: B1 VL
B12: KB001 mouse Fab FASEBA VH H35V (Fab, V domains shown)
VH: B1 VH with Y28S, H35V
VL: B1 VL
B13: KB001 mouse Fab FASEBA VH S30Q (Fab, V domains shown)
VH: B1 VH with Y28S, S30Q
VL: B1 VL
B14: KB001 mouse Fab FASEBA VH S57R (Fab, V domains shown)
VH: B1 VH with Y28S, S57R
VL: B1 VL
B15: KB001 mouse Fab FASEBA VH G53P (Fab, V domains shown)
VH: B1 VH with Y28S, G53P
VL: B1 VL
B16: KB001 mouse Fab FASEBA VH Y32N (Fab, V domains shown)
VH: B1 VH with Y28S, Y32N
VL: B1 VL
B17: KB001 mouse Fab FASEBA VH Y32S (Fab, V domains shown)
VH: B1 VH with Y28S, Y32S
VL: B1 VL
B18: KB001 mouse Fab FASEBA VH I31Q (Fab, V domains shown)
VH: B1 VH with Y28S, I31Q
VL: B1 VL
B19: KB001 mouse Fab FASEBA VH S56M (Fab, V domains shown)
VH: B1 VH with Y28S, S56M
VL: B1 VL
B20: KB001 mouse Fab FASEBA VH S57T (Fab, V domains shown)
VH: B1 VH with Y28S, S57T
VL: B1 VL
B21: KB001 mouse Fab FASEBA VH S57M (Fab, V domains shown)
VH: B1 VH with Y28S, S57M
VL: B1 VL
B22: KB001 mouse Fab FASEBA VH Y32F (Fab, V domains shown)
VH: B1 VH with Y28S, Y32F
VL: B1 VL
B23: KB001 mouse Fab FASEBA VH I31F (Fab, V domains shown)
VH: B1 VH with Y28S, I31F
VL: B1 VL
B24: KB001 mouse Fab FASEBA VH S30T (Fab, V domains shown)
VH: B1 VH with Y28S, S30T
VL: B1 VL
B25: KB001 mouse Fab FASEBA VH G55N (Fab, V domains shown)
VH: B1 VH with Y28S, G55N
VL: B1 VL
B26: KB001 mouse Fab FASEBA VH Y32W (Fab, V domains shown)
VH: B1 VH with Y28S, Y32W
VL: B1 VL
B27: KB001 mouse Fab FASEBA VH S30H (Fab, V domains shown)
VH: B1 VH with Y28S, S30H
VL: B1 VL
B28: KB001 mouse Fab FASEBA VH L29T (Fab, V domains shown)
VH: B1 VH with Y28S, L29T
VL: B1 VL
B29: KB001 mouse Fab FASEBA VH L29P (Fab, V domains shown)
VH: B1 VH with Y28S, L29P
VL: B1 VL
B30: KB001 mouse Fab FASEBA VH I31E (Fab, V domains shown)
VH: B1 VH with Y28S, I31E
VL: B1 VL
B31: KB001 mouse Fab FASEBA VH S56P (Fab, V domains shown)
VH: B1 VH with Y28S, S56P
VL: B1 VL
B32: KB001 mouse Fab FASEBA VH I51Q/M92I (Fab, V domains shown)
VH: B1 VH with Y28S, I51Q, M92I
VL: B1 VL
B33: KB001 mouse Fab FASEBA VH S56L (Fab, V domains shown)
VH: B1 VH with Y28S, S56L
VL: B1 VL
B34: KB001 mouse Fab FASEBA VH S30K (Fab, V domains shown)
VH: B1 VH with Y28S, S30K
VL: B1 VL
B35: KB001 mouse Fab FASEBA VH I31L (Fab, V domains shown)
VH: B1 VH with Y28S, I31L
VL: B1 VL
B36: KB001 mouse Fab FASEBA VH I31N (Fab, V domains shown)
VH: B1 VH with Y28S, I31N
VL: B1 VL
B37: KB001 mouse Fab FASEBA VH G55D (Fab, V domains shown)
VH: B1 VH with Y28S, G55D
VL: B1 VL
B38: KB001 mouse Fab FASEBA VH G53S (Fab, V domains shown)
VH: B1 VH with Y28S, G53S
VL: B1 VL
B39: KB001 mouse Fab FASEBA VH V34M (Fab, V domains shown)
VH: B1 VH with Y28S, V34M
VL: B1 VL
B40: KB001 mouse Fab FASEBA VH S30R (Fab, V domains shown)
VH: B1 VH with Y28S, S30R
VL: B1 VL
B41: KB001 mouse Fab FASEBA VH S57H (Fab, V domains shown)
VH: B1 VH with Y28S, S57H
VL: B1 VL
B42: KB001 mouse Fab FASEBA VH S30F (Fab, V domains shown)
VH: B1 VH with Y28S, S30F
VL: B1 VL

The binders below were run against HRgpA-6H (Porphyromonas gingivalis) (UniProt P28784) (assay: ELISA on coated HRgpA-6H).
Sequence of UniProt P28784 (P28784 228-991 limits assumed): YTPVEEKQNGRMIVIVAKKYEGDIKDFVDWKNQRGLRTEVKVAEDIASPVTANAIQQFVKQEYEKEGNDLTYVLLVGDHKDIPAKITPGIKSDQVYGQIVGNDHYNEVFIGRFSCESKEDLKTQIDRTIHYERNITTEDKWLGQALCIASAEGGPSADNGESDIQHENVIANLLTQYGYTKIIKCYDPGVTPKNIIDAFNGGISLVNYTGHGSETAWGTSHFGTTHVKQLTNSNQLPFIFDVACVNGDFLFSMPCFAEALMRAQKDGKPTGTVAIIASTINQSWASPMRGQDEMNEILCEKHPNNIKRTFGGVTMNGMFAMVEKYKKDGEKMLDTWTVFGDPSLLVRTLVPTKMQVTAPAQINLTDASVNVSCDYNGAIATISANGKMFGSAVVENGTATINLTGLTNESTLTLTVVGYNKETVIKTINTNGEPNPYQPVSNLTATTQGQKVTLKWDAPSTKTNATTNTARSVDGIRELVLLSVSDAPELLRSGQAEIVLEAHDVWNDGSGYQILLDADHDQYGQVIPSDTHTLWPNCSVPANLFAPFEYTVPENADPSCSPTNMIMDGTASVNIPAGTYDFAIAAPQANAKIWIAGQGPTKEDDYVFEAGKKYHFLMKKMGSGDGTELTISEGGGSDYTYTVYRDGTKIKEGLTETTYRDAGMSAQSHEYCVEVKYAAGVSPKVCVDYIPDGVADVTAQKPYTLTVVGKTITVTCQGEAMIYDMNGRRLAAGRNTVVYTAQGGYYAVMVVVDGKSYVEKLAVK

| Binder | OD450nm | Ratio OD(Variant)/OD(WT) |
| --- | --- | --- |
| B1 | 0.437 | 0.809 |
| B2 | 0.798 | 0.903 |
| B3 | 0.446 | 0.826 |
| B4 | 0.838 and 0.844 and 0.853 | 0.953 and 0.96 and 0.97 |
| B5 | 0.469 | 0.93 |
| B6 | 0.471 and 0.428 | 0.934 and 0.848 |
| B7 | 0.437 | 0.866 |
| B8 | 0.772 and 0.713 | 0.878 and 0.811 |
| B9 | 0.759 and 0.743 | 0.863 and 0.845 |
| B10 | 0.468 | 0.928 |
| B11 | 0.459 | 0.91 |
| B12 | 0.706 | 0.856 |
| B13 | 0.47 and 0.483 | 0.932 and 0.957 |
| B14 | 0.796 | 0.905 |
| B15 | 0.754 and 0.716 | 0.947 and 0.899 |
| B16 | 0.826 and 0.775 | 0.976 and 0.916 |
| B17 | 0.717 and 0.783 and 0.718 | 0.847 and 0.925 and 0.848 |
| B18 | 0.44 and 0.439 | 0.872 and 0.87 |
| B19 | 0.809 | 0.92 |
| B20 | 0.843 and 0.849 | 0.958 and 0.965 |
| B21 | 0.748 | 0.85 |

| Binder | OD450nm | Ratio OD(Variant)/OD(WT) |
| --- | --- | --- |
| B22 | 0.814 and 0.807 | 0.962 and 0.953 |
| B23 | 0.45 | 0.892 |
| B24 | 0.457 | 0.906 |
| B25 | 0.652 | 0.81 |
| B26 | 0.731 and 0.718 and 0.747 | 0.864 and 0.848 and 0.882 |
| B27 | 0.482 | 0.955 |
| B28 | 0.502 and 0.512 and 0.501 | 0.93 and 0.948 and 0.928 |
| B29 | 0.468 | 0.867 |
| B30 | 0.42 and 0.458 and 0.428 | 0.833 and 0.908 and 0.848 |
| B31 | 0.855 and 0.788 and 0.824 | 0.972 and 0.896 and 0.937 |
| B32 | 0.722 | 0.817 |
| B33 | 0.71 | 0.807 |
| B34 | 0.46 and 0.467 and 0.493 | 0.912 and 0.926 and 0.977 |
| B35 | 0.442 and 0.431 | 0.876 and 0.854 |
| B36 | 0.429 | 0.85 |
| B37 | 0.697 | 0.866 |
| B38 | 0.686 | 0.861 |
| B39 | 0.793 and 0.791 | 0.962 and 0.959 |
| B40 | 0.481 | 0.953 |
| B41 | 0.8 | 0.91 |
| B42 | 0.438 | 0.868 |
